Each block holds one binder with its values, some of them ahead of it.
What was measured:
[1] = target: T1, light-activated and phosphorylated rhodopsin in rod outer segment membranes (P-ROS*) (UniProt P02699 1-348, phosphorylated by endogenous GRK1: mixture of species with up to seven phosphate groups per molecule, sites not stated); assay: pull-down; 1.5 µg purified arrestin-1-mCherry and 15 µg (rhod-)opsin in native ROS membranes, 50 µl, 100 mM Hepes pH 7.0, 100 mM NaCl, 1 mM DTT, 0.1 mM EDTA; P-ROS* and ROS* illuminated 2.5 min (495 nm long-pass), others kept dark; centrifuged at 4 °C, pellet washed, mCherry fluorescence; conditions: one partner purified
T1 construct: rhodopsin, endogenous in native rod outer segment (ROS) disc membranes (isolated membranes, not whole cells); also called ROS-P*; source: rod outer segment disc membranes isolated from native source; phosphorylated by endogenously available GRK1; illuminated

[2] = target: T1, light-activated and phosphorylated …; assay: pull-down; cleared bacterial lysate with arrestin-mCherry mixed with ROS-P* membranes; 10 mM Hepes pH 7.0, 1 mM DTT, 1 mM MgCl2, 0.1 mM EDTA, NaCl from 100 mM to 3.949 M; 37 °C, 5 min incubation, light activated 6 min; membranes pelleted, washed, mCherry fluorescence of the pellet; IC50 of NaCl for complex formation; conditions: partners not purified
[3] = target: T1, light-activated and phosphorylated …; assay: as above; conditions: partners not purified; remark: listed apart in the source

T1 sequence (P02699 whole entry): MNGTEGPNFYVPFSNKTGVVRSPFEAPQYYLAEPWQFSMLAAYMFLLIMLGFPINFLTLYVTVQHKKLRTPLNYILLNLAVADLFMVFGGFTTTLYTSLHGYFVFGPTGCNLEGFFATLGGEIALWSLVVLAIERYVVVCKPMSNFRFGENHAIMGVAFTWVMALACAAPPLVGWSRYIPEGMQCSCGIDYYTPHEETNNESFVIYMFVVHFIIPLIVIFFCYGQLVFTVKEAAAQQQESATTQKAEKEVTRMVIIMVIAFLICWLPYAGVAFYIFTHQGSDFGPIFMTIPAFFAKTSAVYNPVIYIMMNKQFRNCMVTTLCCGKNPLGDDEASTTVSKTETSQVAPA

- activity level relative to WT [1]: 106%
B1: arrestin-1-mCherry-Strep-tag double mutant T304A + F375A, HEK293-expressed and purified (natural protein, bovine, UniProt P08168 1-404, looked up)
chain: MKANKPAPNHVIFKKISRDKSVTIYLGKRDYIDHVERVEPVDGVVLVDPELVKGKRVYVSLTCAFRYGQEDIDVMGLSFRRDLYFSQVQVFPPVGASGATTRLQESLIKKLGANTYPFLLTFPDYLPCSVMLQPAPQDVGKSCGVDFEIKAFATHSTDVEEDKIPKKSSVRLLIRKVQHAPRDMGPQPRAEASWQFFMSDKPLRLAVSLSKEIYYHGEPIPVTVAVTNSTEKTVKKIKVLVEQVTNVVLYSSDYYIKTVAAEEAQEKVPPNSSLTKTLTLVPLLANNRERRGIALDGKIKHEDANLASSTIIKEGIDKTVMGILVSYQIKVKLTVSGLLGELTSSEVATEVPFRLMHPQPEDPDTAKESFQDENAVFEEFARQNLKDAGEYKEEKTDQEAAMDE
notes: arrestin-1 (visual arrestin), bovine, UniProt P08168; also called T304A + F375A double mutant; source: HEK293, transiently transfected (pcDNA3.1), one-step purified (Strep-Tactin); not shown: mCherry, C-terminal, kept

- IC50 of NaCl for complex formation [2]: 1.51 M
- IC50 of NaCl relative to WT [3]: 502%
B2: arrestin-1-mCherry double mutant T304A + F375A, bacterial lysate (natural protein, bovine, UniProt P08168 1-404, looked up)
chain: B1 chain
notes: arrestin-1 (visual arrestin), bovine, UniProt P08168; not shown: mCherry, C-terminal, kept
